Assay results reported in the nanobody polyreactivity screen of Harvey et al. (2022).

Assay: yeast display, Sf9 membrane polyspecificity reagent, FACS + sequencing; frameworks hold sequencing errors
In short: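 A synthetic nanobody library was expressed on Saccharomyces cerevisiae BJ5465 by galactose induction for 36–48 hours. The library was stained for 1 hour at 4 °C with 10% biotinylated, detergent-solubilized Sf9 membrane reagent and enriched with streptavidin microbeads before FACS. Low and high (top ~1%) gates were set on anti-HA fluorescence for expression and streptavidin fluorescence for reagent binding, and each polyreactivity label reflects the gate of origin.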

Row | Sequence | polyreactivity (PSR sort gate)
1 | QVQLVESGGGLVQAGGSLRLSCAASGRTFGRYAMGWYRQAPGKERELVATITSGGSTNYADSVKGRFTISRDNAKNTVYLQMNSLKPEDTAVYYCAADVKRDRVWGGDYWGQGTQVTVSS | low polyreactivity
2 | QVQLVESGGGLVQAGGSLRLSCAASGRTFGRYAMGWYRQAPGKERELVATITSGGSTNYADSVKGRFTISRDNAKNTVYLQMNSLKPEDTAVYYCAAEFSPSRWAYSEGALRYHYWGQGTQVTVSS | low polyreactivity
3 | QVQLVESGGGLVQAGGSLRLSCAASGRTFGRYTMGWYRQAPGKERELVAAINWSGGRTYYADSVKGRFTISRDNAKNTVYLQMNSLKPEDTAVYYCNAVFANTSPEYEYWGQGTQVTVSS | high polyreactivity
4 | QVQLVESGGGLVQAGGSLRLSCAASGRTFGRYVMGWYRQAPGKERQLVARIRGSTTSTYYADSVKGRFTISRDNAKNTVYLQMNSLKPEDTAVYYCAASYSPFASSYGYDYWGQGTQVTVSS | high polyreactivity
5 | QVQLVESGGGLVQAGGSLRLSCAASGRTFGSKALAWYRPAPGKERELVAAITGGGSTYYADSVKGRFTISRDNAKNTVYLQMNSLKPEDTAVYYCAARGTSGWYRYGYWGQGTQVTVSS | high polyreactivity
6 | QVQLVESGGGLVQAGGSLRLSCAASGRTFGSYTMGWYRQAPGKERELVAAITSGGRTNYADSVKGRFTLSRDNAKNTVYLQMTSLKPEATAVYYCAAGLRGGRYRYFAYDYWGQGTQVTVSS | high polyreactivity
7 | QVQLVESGGGLVQAGGSLRLSCAASGRTFGSYVMGWYRQAPGKERELVAAISWSSGITYYADSVKGRFTISRDNAKNTVYLQMNSLKPEDTAVYYCAARIWDSRAYYYWGQGTQVTVSS | high polyreactivity
8 | QVQLVESGGGLVQAGGSLRLSCAASGRTFGTNAMGWYRQAPGKERELVAAIRRGGSRTYNADSVKGRFTISRDIAKNTVYLQMNSLKPEDTAVYYCAVDYYPYEVSYVRMDYWGQCTQVTVSS | low polyreactivity
9 | QVQLVESGGGLVQAGGSLRLSCAASGRTFGTNAMGWYRQAPGKERELVAAISWRGTSTYYADSVKGRFTISRDNAKNTVYLQMNSLKPEDTAVYYCAADFSYTSYATRYQGDYWGQGTQVTVSS | low polyreactivity
10 | QVQLVESGGGLVQAGGSLRLSCAASGRTFGTYAMGWYRQAPGKERELVAAINFSGGNTYYADSVKGLFTITRDNAKNTVYLQMNSLKPEDTAVYYCAKRGHSYSLDLYYIVTYDYWGQGTQVTVSS | low polyreactivity
11 | QVQLVESGGGLVQAGGSLRLSCAASGRTFGVKAMGWYRQAPGKERELVAAITSGGTTNYADSVKGRFTISRDNAKNTFYLQMNSLKPEDTAVYYCAARSYYPRYGYWGQGTQVTVSS | high polyreactivity
12 | QVQLVESGGGLVQAGGSLRLSCAASGRTFGVNAMGWYRQAPGKERELVAAIDSSGGSTYYADSVKGRFTISRDNAKNTVYLQMNSLKPEDTAVYYCAGPYRPDYDYWGQGTQVTVSS | high polyreactivity
13 | QVQLVESGGGLVQAGGSLRLSCAASGRTFGVNAMGWYRQAPGKERELVAAISRSTGSTYYADSVKGRFTISRDNAKNTVYLQMNSLKPEDTAVYYCARDVYYRGYKYGYWGQGTQVTVSS | high polyreactivity
14 | QVQLVESGGGLVQAGGSLRLSCAASGRTFGVNAMGWYRQAPGKERELVARNRVSGGRTYYADSVKGRFTISRDNAKNTVYLQMNSLKPEDTAVYYFNAGYTYNRVIWPYYYWGQGTQVTVSS | high polyreactivity
15 | QVQLVESGGGLVQAGGSLRLSCAASGRTFGVYAMGWNRQPPGKERELVATITSVDRTTYADSVKGRFTFSRDNAKITVYLQMNSLKPEDTAVYYCAAVGRWPRYYYWGQGTQVTVSS | high polyreactivity
16 | QVQLVESGGGLVQAGGSLRLSCAASGRTFGVYAMGWYRQAPGKERELVAAITGRGGSTYYADSVKGRFTISRDNAKNTVYLQMNSLKAEDTALYYCNAELYEYQSWDDYWGQGTQVTVSS | low polyreactivity
17 | QVQLVESGGGLVQAGGSLRLSCAASGRTFGVYAMGWYRQAPGKERELVATIRTTGSTNYADSVKGRFTISRDNAKNTVYLQMNSLKTEDTAVYYCGARQRQSKYYPYTTFTYDYWGQGTQVTVSS | high polyreactivity
